Results: patent US20150258192A1, “COMPOSITIONS AND METHODS FOR PREVENTING OR TREATING CHRONIC LUNG ALLOGRAFT DYSFUNCTION (CLAD) AND IDIOPATHIC PULMONARY FIBROSIS (IPF)” (priority 2014, published 2015)

Biological target: MAPKAP-K2(h) (human) (UniProt P49137)
Assay: cell-based or functional assay

MMI-0100 ([…]; SEQ ID NO: 1) (peptide)
IC50 (radiometric kinase activity assay): 22 µM
